In IntAct's records for PubMed 19008859:

B1: Myocardin-related transcription factor A (Mus musculus), Q8K4J6 (parent)
chain: MTLLEPEMLMMAVQSVLQLKLQQRRTREELVSQGIMPPLKSPAAFHEQRRSLERARTEDYLKRKIRSRPERAELVRMHILEETSAEPSLQAKQLKLKRARLADDLNEKIAQRPGPMELVEKNILPVESSLKEAIIVGQVNYPKVADSSSFDEDSSDALSPEQPASHESQGSVPSPLESRVSDPLPSATSISPTQVLSQLPMAPDPGETLFLAEQPPLPPAPLLPPSLANGSIVPTAKPAPTLIKQSQPKSASEKSQRSKKAKELKPKVKKLKYHQYIPPDQKQDKGAPAMDSSYAKILQQQQLFLQLQILNQQQQQQQQQHYNYQAILPAPPKPSAETPGSSAPTPSRSLSTSSSPSSGTPGPSGLARQSSTALAAKPGALPANLDDMKVAELKQELKLRSLPVSGTKTELIERLRAYQDQVSPAPGAPKAPATTSVLSKAGEVVVAFPAALLSTGSALVTAGLAPAEMVVATVTSNGMVKFGSTGSTPPVSPTPSERSLLSTGDENSTPGDAFGEMVTSPLTQLTLQASPLQIVKEEGARAASCCLSPGARAELEGLDKDQMLQEKDKQIEELTRMLQQKQQLVELLRLQLEQQKRAQQPAPASSPVKRESGFSSCQLSCQPQGSAHAFGSGLVVPTTNHGDTQAPAPESPPVVVKQEAGPPEPDLAPSSQLLLGSQGTSFLKRVSPPTLVTDSTGTHLILTVTNKSADGPGLPAGSPQQPLSQPGSPAPGPPAQMDLEHPPQPPFATPTSLLKKEPPGYEETVTQQPKQQENGSSSQHMDDLFDILIQSGEISADFKEPPSLPGKEKSPPAAAAYGPPLTPQPSPLSELPQAAPPPGSPTLPGRLEDFLESSTGLPLLTSGHEGPEPLSLIDDLHSQMLSSSAILDHPPSPMDTSELHFAPEPSSGMGLDLAVGHLDSMDWLELSSGGPVLSLAPLSTAAPSLFSMDFLDGHDLQLHWDSCL

Variants of: B1
Conditions: with acts_rabit ACTA1, P68135
In the case of G114E;P115R, the “effect of a mutation on the interaction” value is reported as “increasing interaction”.

Variants of: B1
Conditions: with acts_rabit ACTA1, P68135
Remark: another data set of the same source
With R68A the “effect of a mutation on the interaction” value was “disrupting interaction”.

Variants of: B1
Conditions: with acts_rabit ACTA1, P68135
Remark: another data set of the same source
L118A;I123A;L124A was tested, and the “effect of a mutation on the interaction” value was “disrupting interaction”.

Variants of: B1
Conditions: with acts_rabit ACTA1, P68135
Remark: another data set of the same source
For L61A;I65A, the “effect of a mutation on the interaction” value was “disrupting interaction”.

Variants of: B1
Conditions: with acts_rabit ACTA1, P68135
Remark: another data set of the same source
R24A was tested, and the “effect of a mutation on the interaction” value was “disrupting interaction”.

Variants of: B1
Conditions: with acts_rabit ACTA1, P68135
Remark: another data set of the same source
With R24D;R25D the “effect of a mutation on the interaction” value was “disrupting interaction”.

Variants of: B1
Conditions: with acts_rabit ACTA1, P68135
Remark: another data set of the same source
In the case of L105A;I109A, the “effect of a mutation on the interaction” value is reported as “disrupting interaction”.

Variants of: B1
Conditions: with acts_rabit ACTA1, P68135
Remark: another data set of the same source
For L74A;I79A;L80A, the “effect of a mutation on the interaction” value was “disrupting interaction”.

Variants of: B1
Conditions: with acts_rabit ACTA1, P68135
Remark: another data set of the same source
In the case of R112A, the “effect of a mutation on the interaction” value is reported as “disrupting interaction”.

Variants of: B1
Conditions: with acts_rabit ACTA1, P68135
Remark: another data set of the same source
G114E;P115Q;L118A;I123A;L124A was tested, and the “effect of a mutation on the interaction” value was “disrupting interaction”.

Variants of: B1
Conditions: with acts_rabit ACTA1, P68135
Remark: another data set of the same source
P69R was tested, and the “effect of a mutation on the interaction” value was “decreasing interaction”.
